# From the RNAGym collection of RNA variant scans (doi:10.1093/nar/gkz1192)
# B1: CPEB3 Ribozyme (parent)
# chain: UAACAGGGGGCCACAGCAGAAGCGUUCACGUCGCAGCCCCUGUCAGAUUCUGGUGAAUCUGCGAAUUCUGCUGUAUAUCUC
# Variants of: B1
# Test: self-cleavage, relative activity (ratio to wild type); higher = more cleavage; in vitro, sequencing
# How it was run: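 For each CPEB3 ribozyme variant, relative activity is its cleaved/total read fraction divided by the unmutated ribozyme's. Barcoded error-prone PCR libraries were transcribed by T7 RNA polymerase (5 hours, 37°C) and held in DNase I for 15 min before an EDTA stop, with cleavage occurring throughout. Template-switching reverse transcription and Illumina sequencing were used to read the RNAs. A 5-read minimum applied, and results are the mean of three batches.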
row,Variant,self-cleavage
1,G10U U48A,0.35
2,G10C A64U,0.15
3,G10C A64G,0.25
4,G9U C38A,1.09
5,G10U A13G,0.11
6,G10U A13U,0.1
7,G10C U76C,0.19
8,G10U U51C,0.4
9,G10A C17U,0.06
10,G10A C17G,0.3
11,G10A C17A,0.23
12,G10A U69A,0.11
13,G10A U69G,0.36
14,G10A U69C,0.2
15,G10A A45U,0.19
16,G10A A45G,0.22
17,G10C,0.25
18,G10A,0.26
19,G10U,0.23
20,G10A A35G,0.55
21,G10A A35U,0.11
22,G10A G36A,0.26
23,G9U A77U,0.16
24,G10A G33A,0.19

row,Variant,self-cleavage
1,G10A U26A,0.07
2,G10A U26C,0.22
3,G10A U26G,0.05
4,G9U U41C,0.32
5,G9U U41A,0.15
6,G9C A77C,0.18
7,G9U U49C,0.11
8,G9U U49A,0.41
9,G10A A18C,0.35
10,G10A A18G,0.23
11,G10A A18U,0.15
12,G10U A45C,0.14
13,G9C A65G,0.32
14,G9U G63A,0.08
15,G10A U51C,0.24
16,G10A U51A,0.33
17,G10C G42U,0.16
18,G9U G36A,0.15
19,G9U G36C,0.07
20,G10U C38G,0.17
21,G10U A21C,0.06
22,G10U A21G,0.08
23,G10A A13G,0.26
24,G10A A13C,0.28

row,Variant,self-cleavage
1,G10A A13U,0.28
2,G9U C59U,0.06
3,G10C A56G,0.15
4,G10A A21U,0.13
5,G10A A21G,0.24
6,G10A A21C,0.15
7,G9C U60A,0.15
8,G9C U60C,0.25
9,G10U G52U,0.09
10,G10U U43C,0.34
11,G10C A20G,0.19
12,G10C A20U,0.42
13,G9U U78C,0.2
14,G9U U78A,0.27
15,G9C U54C,0.41
16,G10A C34U,0.05
17,G9U A15G,0.14
18,G9U A15C,0.36
19,G9U A15U,0.32
20,G10C G52A,0.2
21,G9U,0.24
22,G10A A65U,0.14
23,G10A A65C,0.09
24,G10A A65G,0.12

row,Variant,self-cleavage
1,G10C A28C,0.16
2,G10C A28G,0.14
3,G9C U74C,0.26
4,G10A A20G,0.3
5,G10A A20C,0.22
6,G10A A20U,0.23
7,G10A U31C,0.2
8,G9U A18U,0.2
9,G9U A18G,0.19
10,G9U A18C,0.18
11,G9U G53U,0.36
12,G10C A35G,0.28
13,G10U U60C,0.38
14,G10U U60G,0.31
15,G10U U25C,0.21
16,G10A A77G,0.08
17,G10A A77U,0.04
18,G10C A65G,0.33
19,G9U U26G,0.09
20,G9U U26C,0.19
21,G9U A57G,0.25
22,G10C U74G,0.26
23,G10C U74A,0.26
24,G10C U58C,0.19

row,Variant,self-cleavage
1,G10C C44U,0.18
2,G10C U72A,0.14
3,G10C U67A,0.17
4,G10C U67C,0.37
5,G9U G19U,0.07
6,G9U C29U,0.13
7,G10U A35G,0.32
8,G10U A35U,0.05
9,G10A A56U,0.12
10,G10A A56G,0.15
11,G9U A75U,0.17
12,G9U A75G,0.13
13,G10C U49A,0.2
14,G10C U49G,0.17
15,G10C U49C,0.22
16,G10C U48C,0.22
17,G9C G52A,0.55
18,G10C C12U,0.1
19,G10C C12A,0.44
20,G9U A56C,0.29
21,G9U A56U,0.29
22,G9U A56G,0.14
23,G10A U43G,0.19
24,G10A U43A,0.28

row,Variant,self-cleavage
1,G10A U43C,0.06
2,G9C U25C,0.07
3,G10U A64U,0.35
4,G10U A64G,0.07
5,G9C C71G,0.05
6,G10A U58C,0.18
7,G10A U58A,0.24
8,G10U A57U,0.07
9,G10U A57G,0.23
10,G10C A57G,0.21
11,G10U A15G,0.18
12,G10U U26C,0.28
13,G10U U26A,0.32
14,G10C C71A,0.12
15,G9U A47G,0.29
16,G10A C29U,0.13
17,G10A A15U,0.2
18,G10A A15G,0.24
19,G9C U58G,0.06
20,G9U U80C,0.24
21,G9U U80A,0.26
22,G10A C44U,0.21
23,G10A C23A,0.06
24,G10C U25C,0.07

row,Variant,self-cleavage
1,G10C A75G,0.24
2,G10A U76C,0.33
3,G10A U76A,0.23
4,G9U A65G,0.17
5,G10A U60G,0.06
6,G10A U60C,0.2
7,G10A U60A,0.14
8,G9C A75G,0.17
9,G10U A65G,0.19
10,G10A U66C,0.2
11,G10U C40U,0.06
12,G10A G30U,0.17
13,G10U A56G,0.16
14,G10U A56U,0.08
15,G10A U25C,0.23
16,G10A U25A,0.26
17,G10A U25G,0.14
18,G9U G55A,0.41
19,G10U C62U,0.13
20,G10A U41G,0.38
21,G10A U41C,0.31
22,G10A U41A,0.29
23,G9U C40U,0.19
24,G9U C40A,0.14

row,Variant,self-cleavage
1,G10A U48C,0.2
2,G9U A35U,0.14
3,G9U A35C,0.14
4,G9U A35G,0.33
5,G10A C81G,0.3
6,G10C G16A,0.12
7,G10A G61C,0.09
8,G9U U31C,0.13
9,G9U U31G,0.06
10,G10A C59A,0.06
11,G10C C14U,0.5
12,G9U A21G,0.22
13,G10U U66A,0.18
14,G10A C11U,0.5
15,G10C U54A,0.26
16,G10C U54C,0.39
17,G10A C39A,0.37
18,G10A G55U,0.07
19,G10A G55A,0.36
20,G9U U54C,0.1
21,G9U U54A,0.08
22,G9U U69A,0.11
23,G9U U69G,0.18
24,G9U U69C,0.11

row,Variant,self-cleavage
1,G9U U58C,0.14
2,G9U U51C,0.17
3,G9U U51A,0.14
4,G10C A18G,0.13
5,G10C A18U,0.12
6,G10U U41A,0.22
7,G10C C11A,0.33
8,G10C U41C,0.1
9,G10C U41A,0.33
10,G10U A77G,0.35
11,G10U A77U,0.07
12,G10U A28G,0.17
13,G10U A47G,0.21
14,G9U C37U,0.07
15,G9U C14U,0.11
16,G9C U67C,0.11
17,G9C C79A,0.58
18,G10A C71A,0.11
19,G10A C71U,0.08
20,G10A C71G,0.12
21,G9C G55A,0.41
22,G9C U41C,0.15
23,G10A C38U,0.08
24,G10A A57G,0.29

row,Variant,self-cleavage
1,G10A A57U,0.05
2,G9U U48C,0.29
3,G9U A28G,0.11
4,G9U A28U,0.13
5,G10U A20G,0.36
6,G10A C27G,0.16
7,G9U U67A,0.11
8,G9U U67C,0.24
9,G10A G53C,0.33
10,G10A G53A,0.29
11,G9U U43G,0.12
12,G9U U43A,0.52
13,G9U U43C,0.15
14,G9C A64U,0.23
15,G9U U66G,0.11
16,G9U U66C,0.15
17,G10A A28G,0.21
18,G10A A28C,0.1
19,G10A A28U,0.17
20,G10U C37A,0.72
21,G10A U74G,0.14
22,G10A U74C,0.25
23,G10A U74A,0.25
24,G10C G53A,0.26

row,Variant,self-cleavage
1,G10A G24A,0.16
2,G10A U49C,0.19
3,G10A U49G,0.18
4,G10U C32U,0.21
5,G9U G52U,0.18
6,G9C U43C,0.13
7,G10C A47U,0.15
8,G10A A75G,0.19
9,G9U U76C,0.13
10,G9U U76A,0.39
11,G10C A45G,0.13
12,G10C A45U,0.16
13,G10A A47G,0.12
14,G10C A21G,0.18
15,G9U C81U,0.27
16,G10U U58C,0.34
17,G10C U26G,0.39
18,G10C U26C,0.21
19,G10C U43A,0.38
20,G10C U43C,0.13
21,G10A A64G,0.24
22,G10A A64C,0.18
23,G10A A64U,0.15
24,G10U U54C,0.34

row,Variant,self-cleavage
1,G10A U72G,0.24
2,G10A U72C,0.39
3,G10A U72A,0.22
4,G10A U67C,0.25
5,G9U A20G,0.34
6,G10A G46U,0.17
7,G10U U49A,0.31
8,G10U U49G,0.14
9,G10U U49C,0.24
10,G10A G42C,0.16
11,G10A G42U,0.38
12,G9U C62U,0.13
13,G9C C44U,0.18
14,G10C U80C,0.31
15,G10U G53U,0.24
16,G10C G73A,0.35
17,G9U A64U,0.06
18,G9U A64G,0.15
19,G9C U31C,0.22
20,G9C U31A,0.19
21,G9C C34A,0.14
22,G10C U78C,0.17
23,G10C U78A,0.09
24,G9C U76C,0.3

row,Variant,self-cleavage
1,G10C G33A,0.16
2,G10A U80A,0.06
3,G10A U80G,0.25
4,G10A U80C,0.25
5,G9U G70A,0.1
6,G9C U51A,0.09
7,G9U A45G,0.11
8,G9U A45C,0.05
9,G9U A45U,0.04
10,G10A C32U,0.19
11,G10A C32A,0.06
12,G9U G24C,0.11
13,G10A U54C,0.19
14,G10A U54A,0.35
15,G10A U54G,0.16
16,G10U C50U,0.17
17,G10U G33A,0.23
18,G10U G33U,0.1
19,G10C U60A,0.12
20,G9C G30C,0.06
21,G9C G30U,0.22
22,G9C G30A,0.1
23,G9U C12U,0.2
24,G10C C27U,0.15

row,Variant,self-cleavage
1,G10C U66C,0.15
2,G10C U66A,0.2
3,G10A U78C,0.24
4,G10A U78G,0.33
5,G10C U69G,0.16
6,G10C U69A,0.3
7,G10C U69C,0.12
8,G9U U74C,0.32
9,G9U U60A,0.15
10,G9U U60C,0.06
11,G9U A13G,0.24
12,G10C G24U,0.15
13,G10C A15G,0.08
14,G10C A15U,0.08
15,G9C U72G,0.09
16,G9C U72C,0.37
17,G10A C40A,0.19
18,G10A C40U,0.15
19,G9U U25C,0.14
20,G10C U51C,0.22
21,G9U U72C,0.26
22,G9U U72A,0.09
